Measurements from the RNAGym collection of RNA variant scans (doi:10.7554/elife.80360).

B1: Twister Ribozyme (parent)
chain: AACACUGCCAAUGCCGGUCCCAAGCCCGGAUAAAAGUGGAGGGGGCGG

Variants of: B1
Test: self-cleavage, relative activity (ratio to wild type); higher = more cleavage; co-transcriptional

First: C9U U31G
Second: C9U A30G
The self-cleavage of the first is lower: 0.69 for the first, 0.865 for the second.

First: C9U A30C
Second: C8U G44A
The self-cleavage of the first is lower: 0.526 for the first, 0.658 for the second.

Compared with C8U G44C, A10G A35U is higher in self-cleavage: 0.598 for the first, 0.943 for the second.

First: A10G A35C
Second: C9A A30U
The self-cleavage of the first is higher: 1.17 for the first, 0.725 for the second.

First: C9A A30C
Second: C9A A30G
The self-cleavage of the first is lower: 0.608 for the first, 0.846 for the second.

First: C9G C27A
Second: C9G C27U
The self-cleavage of the first is lower: 0.098 for the first, 0.326 for the second.

Compared with C9G C27G, C9U G17A is lower in self-cleavage: 0.0899 for the first, 0.0711 for the second.

Compared with A10C A32U, A10C A32G is higher in self-cleavage: 0.892 for the first, 0.971 for the second.

Compared with C9A C14A, C9A C14U is higher in self-cleavage: 0.61 for the first, 0.697 for the second.

First: C8U U31A
Second: C8U U31G
The self-cleavage of the first is lower: 0.592 for the first, 0.603 for the second.

First: C9A G48C
Second: C9A G48A
The self-cleavage of the first is higher: 0.541 for the first, 0.357 for the second.

Compared with C9A G48U, A10C C27A is higher in self-cleavage: 0.451 for the first, 0.673 for the second.

Going from A10C C27G to C9U U12A, the self-cleavage rises from 0.0988 to 0.794.

Going from C9U U12G to A10C C21G, the self-cleavage falls from 0.501 to 0.0689.

Compared with C8U C19G, C8U C19A is lower in self-cleavage: 0.0901 for the first, 0.0797 for the second.

Compared with C9A C46A, C9A C46U is higher in self-cleavage: 0.426 for the first, 0.758 for the second.

Going from C9A C20G to C9U G39C, the self-cleavage rises from 0.0801 to 0.151.

Compared with C9U G39U, C9A A32G is higher in self-cleavage: 0.115 for the first, 0.729 for the second.

Going from C9A A32C to C8U C9A, the self-cleavage falls from 0.665 to 0.112.

First: C9U G43C
Second: A10C G43C
The self-cleavage of the first is lower: 0.151 for the first, 0.201 for the second.

First: A10C G43U
Second: A10C G43A
The self-cleavage of the first is higher: 0.482 for the first, 0.337 for the second.

First: C9A A23G
Second: C9A G44A
The self-cleavage of the first is lower: 0.055 for the first, 0.664 for the second.

First: C9A G44C
Second: A10C A22C
The self-cleavage of the first is lower: 0.425 for the first, 0.993 for the second.

First: A10C G41C
Second: A10C G41A
The self-cleavage of the first is lower: 0.23 for the first, 0.494 for the second.

First: A10C G41U
Second: C9A A10G
The self-cleavage of the first is higher: 0.653 for the first, 0.648 for the second.

Compared with C9A A10U, C9A A10C is lower in self-cleavage: 0.646 for the first, 0.574 for the second.

Compared with C9G C15U, A10C C46G is higher in self-cleavage: 0.479 for the first, 0.714 for the second.

First: C9A G16A
Second: C9A G16C
The self-cleavage of the first is higher: 0.372 for the first, 0.087 for the second.

Compared with C9U A10G, C8U C20G is lower in self-cleavage: 0.872 for the first, 0.0649 for the second.

Going from C8U C20U to A10C U37C, the self-cleavage rises from 0.308 to 0.767.

Going from C9G G48A to C9G G48C, the self-cleavage rises from 0.443 to 0.511.

Compared with C9U C19G, C9A G13A is higher in self-cleavage: 0.101 for the first, 1.09 for the second.

Compared with C9A G13C, C9G C14A is lower in self-cleavage: 0.729 for the first, 0.536 for the second.

First: C9G C14U
Second: C9A U31A
The self-cleavage of the first is lower: 0.624 for the first, 0.72 for the second.

Going from C8U A22C to C8U G45U, the self-cleavage falls from 0.863 to 0.313.

Compared with A10C C14G, A10C C14U is higher in self-cleavage: 0.289 for the first, 1.01 for the second.

Compared with A10G C14U, A10G C14G is lower in self-cleavage: 1.02 for the first, 0.0768 for the second.

Compared with A10C A40G, A10C A40U is lower in self-cleavage: 0.181 for the first, 0.155 for the second.

Compared with C9A G43A, C9A G43U is lower in self-cleavage: 0.153 for the first, 0.149 for the second.

Going from C9A G38C to C9A G38A, the self-cleavage falls from 0.589 to 0.393.

First: A10G C26A
Second: A10G C26U
The self-cleavage of the first is higher: 0.518 for the first, 0.285 for the second.

Compared with C8U A35G, C8U G16A is lower in self-cleavage: 0.559 for the first, 0.442 for the second.

Compared with C8U G16U, C8U G16C is lower in self-cleavage: 0.459 for the first, 0.199 for the second.

Going from A10C G36C to C8U G28C, the self-cleavage falls from 0.688 to 0.469.

Compared with C8U G28A, C9U C25A is lower in self-cleavage: 0.446 for the first, 0.1 for the second.

Going from C9U C25U to C9G C26U, the self-cleavage falls from 0.404 to 0.0719.

Compared with C9G C26A, C9G C26G is lower in self-cleavage: 0.115 for the first, 0.083 for the second.

Going from A10G A11G to A10C G42A, the self-cleavage falls from 0.886 to 0.31.

Going from A10C G42C to A10C G47C, the self-cleavage rises from 0.345 to 0.538.

Compared with A10C G47U, C9A G24U is lower in self-cleavage: 0.741 for the first, 0.111 for the second.

Compared with C9A G24A, A10C A30G is higher in self-cleavage: 0.0968 for the first, 0.969 for the second.

Compared with A10C A30C, C9A C25U is lower in self-cleavage: 0.884 for the first, 0.185 for the second.

Compared with C9A C25G, A10G A32G is higher in self-cleavage: 0.0787 for the first, 1.15 for the second.

Going from A10G A32U to C8U G43U, the self-cleavage falls from 1.01 to 0.131.

Compared with C9G A35U, C9G A35G is lower in self-cleavage: 0.695 for the first, 0.591 for the second.

Going from C9A G39A to C9A G39U, the self-cleavage falls from 0.167 to 0.131.

Compared with C9G G39C, C9G U37G is higher in self-cleavage: 0.132 for the first, 0.327 for the second.

Going from C8U C15G to C8U C15U, the self-cleavage rises from 0.0382 to 0.768.

Compared with C8U C15A, C9G C21G is lower in self-cleavage: 0.318 for the first, 0.115 for the second.

First: C9G C21U
Second: C9G C20U
The self-cleavage of the first is lower: 0.0793 for the first, 0.23 for the second.

Going from A10C G16A to A10C G16C, the self-cleavage falls from 0.726 to 0.526.

Compared with A10G A30U, A10G A30C is lower in self-cleavage: 0.984 for the first, 0.981 for the second.

First: C9G G38A
Second: C9G G38C
The self-cleavage of the first is lower: 0.278 for the first, 0.4 for the second.

Going from C8U G36C to C8U G36A, the self-cleavage rises from 0.106 to 0.18.

Compared with C8U G36U, C9A U18A is lower in self-cleavage: 0.109 for the first, 0.0887 for the second.

Going from C9A U18C to C9A U37C, the self-cleavage rises from 0.0799 to 0.16.

Going from C8U G24C to C8U G24A, the self-cleavage rises from 0.0664 to 0.772.

First: A10C U12G
Second: C9G U18G
The self-cleavage of the first is higher: 1.06 for the first, 0.0467 for the second.

Compared with C9G U18C, C9G U18A is higher in self-cleavage: 0.0886 for the first, 0.108 for the second.

Compared with A10C G48C, A10G C19U is lower in self-cleavage: 1.03 for the first, 1.02 for the second.

First: A10G C19A
Second: C8U C14U
The self-cleavage of the first is lower: 0.472 for the first, 0.791 for the second.

Going from C8U C14G to C8U C14A, the self-cleavage rises from 0.0673 to 0.63.

Going from A10G C21A to A10G C21G, the self-cleavage falls from 0.137 to 0.0634.

Compared with C9G U31A, C9U G16C is lower in self-cleavage: 0.648 for the first, 0.13 for the second.

Going from C9A G36C to C9A G42C, the self-cleavage rises from 0.107 to 0.288.

Compared with C9G A30U, C9G A30C is higher in self-cleavage: 0.62 for the first, 0.649 for the second.

First: C9A C27A
Second: C9A C27G
The self-cleavage of the first is higher: 0.103 for the first, 0.0551 for the second.

Compared with C9A C27U, C9U G48C is higher in self-cleavage: 0.304 for the first, 0.795 for the second.

First: C9U G48A
Second: C9U G48U
The self-cleavage of the first is lower: 0.491 for the first, 0.646 for the second.

First: C8U A30C
Second: C8U A30G
The self-cleavage of the first is lower: 0.15 for the first, 0.766 for the second.

First: C9U G38C
Second: C9U G38A
The self-cleavage of the first is higher: 0.509 for the first, 0.177 for the second.

Going from A10G A34C to A10G A34U, the self-cleavage rises from 0.498 to 0.959.

Compared with C9G G24C, C9G G24U is lower in self-cleavage: 0.0967 for the first, 0.0888 for the second.

C9A U12C showed a self-cleavage of 0.795.
